Results taken from IntAct's records for PubMed 31515488.

B1: Four and a half LIM domains protein 5 (Homo sapiens), Q5TD97 (parent)
chain: MTTAHFYCQYCTASLLGKKYVLKDDSPYCVTCYDRVFSNYCEECKKPIESDSKDLCYKDRHWHEGCFKCTKCNHSLVEKPFAAKDERLLCTECYSNECSSKCFHCKRTIMPGSRKMEFKGNYWHETCFVCENCRQPIGTKPLISKESGNYCVPCFEKEFAHYCNFCKKVITSGGITFCDQLWHKECFLCSGCRKDLCEEQFMSRDDYPFCVDCYNHLYANKCVACSKPISGLTGAKFICFQDSQWHSECFNCGKCSVSLVGKGFLTQNKEIFCQKCGSGMDTDI
partner: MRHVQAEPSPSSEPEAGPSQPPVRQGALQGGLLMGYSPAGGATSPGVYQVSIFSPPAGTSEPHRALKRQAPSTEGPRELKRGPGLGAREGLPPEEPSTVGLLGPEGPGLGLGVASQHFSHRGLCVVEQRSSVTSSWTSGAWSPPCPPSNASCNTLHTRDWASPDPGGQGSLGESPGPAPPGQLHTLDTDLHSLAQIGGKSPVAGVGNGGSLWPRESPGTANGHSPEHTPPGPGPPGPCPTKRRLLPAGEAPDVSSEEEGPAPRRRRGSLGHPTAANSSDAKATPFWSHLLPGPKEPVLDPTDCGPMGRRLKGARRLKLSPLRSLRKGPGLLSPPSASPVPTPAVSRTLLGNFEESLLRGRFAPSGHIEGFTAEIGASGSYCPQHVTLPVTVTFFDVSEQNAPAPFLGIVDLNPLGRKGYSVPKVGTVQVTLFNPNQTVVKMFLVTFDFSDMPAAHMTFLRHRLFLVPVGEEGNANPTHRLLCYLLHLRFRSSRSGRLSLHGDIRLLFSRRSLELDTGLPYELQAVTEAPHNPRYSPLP
B2: Cyclin-D1-binding protein 1 (Homo sapiens), O95273 (parent)
chain: MASATAPAAAVPTLASPLEQLRHLAEELRLLLPRVRVGEAQETTEEFNREMFWRRLNEAAVTVSREATTLTIVFSQLPLPSPQETQKFCEQVHAAIKAFIAVYYLLPKDQGITLRKLVRGATLDIVDGMAQLMEVLSVTPTQSPENNDLISYNSVWVACQQMPQIPRDNKAAALLMLTKNVDFVKDAHEEMEQAVEECDPYSGLLNDTEENNSDNHNHEDDVLGFPSNQDLYWSEDDQELIIPCLALVRASKACLKKIRMLVAENGKKDQVAQLDDIVDISDEISPSVDDLALSIYPPMCHLTVRINSAKLVSVLKKALEITKASHVTPQPEDSWIPLLINAIDHCMNRIKELTQSELEL
partner: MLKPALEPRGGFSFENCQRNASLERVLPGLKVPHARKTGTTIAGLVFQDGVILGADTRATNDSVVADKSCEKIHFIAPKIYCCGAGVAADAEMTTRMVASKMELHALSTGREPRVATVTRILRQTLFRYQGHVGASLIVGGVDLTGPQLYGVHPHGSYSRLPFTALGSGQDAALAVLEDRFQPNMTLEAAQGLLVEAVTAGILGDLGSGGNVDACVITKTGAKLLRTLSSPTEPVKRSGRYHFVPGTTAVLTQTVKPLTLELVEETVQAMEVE
B3: DNA topoisomerase 3-beta-1 (Homo sapiens), O95985 (parent)
chain: MKTVLMVAEKPSLAQSIAKILSRGSLSSHKGLNGACSVHEYTGTFAGQPVRFKMTSVCGHVMTLDFLGKYNKWDKVDPAELFSQAPTEKKEANPKLNMVKFLQVEGRGCDYIVLWLDCDKEGENICFEVLDAVLPVMNKAHGGEKTVFRARFSSITDTDICNAMACLGEPDHNEALSVDARQELDLRIGCAFTRFQTKYFQGKYGDLDSSLISFGPCQTPTLGFCVERHDKIQSFKPETYWVLQAKVNTDKDRSLLLDWDRVRVFDREIAQMFLNMTKLEKEAQVEATSRKEKAKQRPLALNTVEMLRVASSSLGMGPQHAMQTAERLYTQGYISYPRTETTHYPENFDLKGSLRQQANHPYWADTVKRLLAEGINRPRKGHDAGDHPPITPMKSATEAELGGDAWRLYEYITRHFIATVSHDCKYLQSTISFRIGPELFTCSGKTVLSPGFTEVMPWQSVPLEESLPTCQRGDAFPVGEVKMLEKQTNPPDYLTEAELITLMEKHGIGTDASIPVHINNICQRNYVTVESGRRLKPTNLGIVLVHGYYKIDAELVLPTIRSAVEKQLNLIAQGKADYRQVLGHTLDVFKRKFHYFVDSIAGMDELMEVSFSPLAATGKPLSRCGKCHRFMKYIQAKPSRLHCSHCDETYTLPQNGTIKLYKELRCPLDDFELVLWSSGSRGKSYPLCPYCYNHPPFRDMKKGMGCNECTHPSCQHSLSMLGIGQCVECESGVLVLDPTSGPKWKVACNKCNVVAHCFENAHRVRVSADTCSVCEAALLDVDFNKAKSPLPGDETQHMGCVFCDPVFQELVELKHAASCHPMHRGGPGRRQGRGRGRARRPPGKPNPRRPKDKMSALAAYFV
partner: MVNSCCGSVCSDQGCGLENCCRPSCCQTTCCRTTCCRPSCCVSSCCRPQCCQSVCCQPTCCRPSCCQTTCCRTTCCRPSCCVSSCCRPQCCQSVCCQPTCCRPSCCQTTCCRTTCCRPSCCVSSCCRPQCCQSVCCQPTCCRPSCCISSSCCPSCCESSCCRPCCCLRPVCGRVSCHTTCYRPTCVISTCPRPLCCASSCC
B4: ATP synthase mitochondrial F1 complex assembly factor 2 (Homo sapiens), Q8N5M1 (parent)
chain: MWRSCLRLRDGGRRLLNRPAGGPSASMSPGPTIPSPARAYAPPTERKRFYQNVSITQGEGGFEINLDHRKLKTPQAKLFTVPSEALAIAVATEWDSQQDTIKYYTMHLTTLCNTSLDNPTQRNKDQLIRAAVKFLDTDTICYRVEEPETLVELQRNEWDPIIEWAEKRYGVEISSSTSIMGPSIPAKTREVLVSHLASYNTWALQGIEFVAAQLKSMVLTLGLIDLRLTVEQAVLLSRLEEEYQIQKWGNIEWAHDYELQELRARTAAGTLFIHLCSESTTVKHKLLKE
partner: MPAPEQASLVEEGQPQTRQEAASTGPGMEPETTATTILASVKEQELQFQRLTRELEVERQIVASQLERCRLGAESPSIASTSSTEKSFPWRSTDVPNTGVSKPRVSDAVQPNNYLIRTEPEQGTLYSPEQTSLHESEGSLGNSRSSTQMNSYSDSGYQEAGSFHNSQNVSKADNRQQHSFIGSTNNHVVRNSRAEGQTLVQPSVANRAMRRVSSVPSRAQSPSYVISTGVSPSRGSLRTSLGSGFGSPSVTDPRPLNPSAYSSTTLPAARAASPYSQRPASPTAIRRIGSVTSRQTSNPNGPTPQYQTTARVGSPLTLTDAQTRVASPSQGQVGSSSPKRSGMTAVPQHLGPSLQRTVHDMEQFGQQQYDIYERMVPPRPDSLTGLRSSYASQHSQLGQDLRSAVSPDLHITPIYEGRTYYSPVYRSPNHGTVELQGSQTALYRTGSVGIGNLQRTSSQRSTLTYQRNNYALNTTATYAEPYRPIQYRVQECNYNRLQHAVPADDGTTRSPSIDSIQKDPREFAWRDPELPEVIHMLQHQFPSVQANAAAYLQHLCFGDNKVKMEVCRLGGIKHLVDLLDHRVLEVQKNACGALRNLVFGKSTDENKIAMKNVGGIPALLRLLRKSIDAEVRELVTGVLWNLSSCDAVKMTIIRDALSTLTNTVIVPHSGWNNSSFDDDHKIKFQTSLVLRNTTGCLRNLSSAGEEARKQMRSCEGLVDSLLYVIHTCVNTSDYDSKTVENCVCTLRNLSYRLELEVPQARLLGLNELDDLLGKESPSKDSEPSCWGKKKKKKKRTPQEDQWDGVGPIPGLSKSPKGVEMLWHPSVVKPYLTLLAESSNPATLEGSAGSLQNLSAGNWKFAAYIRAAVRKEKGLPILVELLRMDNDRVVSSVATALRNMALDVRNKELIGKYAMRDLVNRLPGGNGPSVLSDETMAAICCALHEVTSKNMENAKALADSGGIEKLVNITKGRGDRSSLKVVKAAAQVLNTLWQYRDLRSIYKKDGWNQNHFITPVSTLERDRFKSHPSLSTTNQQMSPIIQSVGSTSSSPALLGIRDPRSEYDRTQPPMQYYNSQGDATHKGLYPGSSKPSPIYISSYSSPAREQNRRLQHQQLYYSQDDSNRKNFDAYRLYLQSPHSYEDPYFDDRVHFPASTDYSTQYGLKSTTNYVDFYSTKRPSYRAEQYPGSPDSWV

Variants of: B1
Conditions: with atosb_human ATOSB

Row | Variant | effect of a mutation on the interaction
1 | R60W | with no effect
2 | M202L | with no effect
3 | R204G | with no effect

Variants of: B2
Conditions: with psb10_human PSMB10, P40306

Row | Variant | effect of a mutation on the interaction
4 | I277T | disrupting interaction strength

Variants of: B3
Conditions: with kr412_human KRTAP4-12, Q9BQ66

Row | Variant | effect of a mutation on the interaction
5 | R267W | with no effect

Variants of: B4
Conditions: with pkp4_human PKP4, Q99569

Row | Variant | effect of a mutation on the interaction
6 | E241G | with no effect
